± gives the standard deviation.
Test: protein stability index of a GFP-peptide fusion (GPS, HEK-293T) (PSI 1-6); higher = more stable
[1] = treatment: DMSO, c terminus: a fixed tail appended
[2] = treatment: MLN4924 1 uM, 8 h, c terminus: a fixed tail appended
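Further: 24-mer peptide tiles fused after GFP, lentivirally expressed, FACS-sorted into six equal bins by GFP/DsRed ratio, decoded by Illumina sequencing, PSI is the read-weighted mean bin number.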

Sequence | protein stability index [1] | protein stability index [2] | protein stability index (treatment: DMSO, c terminus: native) | protein stability index (treatment: MLN4924 1 uM, 8 h, c terminus: native)
IQVEDIRIRAILSTYRKRTPVMEG [LOXL2] | 2.13 ± 0.48 | 2.16 ± 0.35 |  | 
EQKTGTEAEAADSGAVGARRFLLC [MFSD9] | 4.48 ± 0.15 | 4.42 ± 0.1 |  | 
RPPAYSPAQRSHTYTHGLGLHRRP | 3.63 ± 0.28 | 3.75 ± 0.16 |  | 
LYSRTGDIVEFVCKSGYHPTKSHS [CFHR2] | 2.15 ± 0.16 | 2.45 ± 0.4 |  | 
LPRRDFQRQVWLLFEYPESSGPAR [KCNA3] | 2.32 ± 0.26 | 2.71 ± 0.58 |  | 
LQGSLFGLAGLLPASYTAPIMSGQ [SLC29A1] | 2.44 ± 0.28 | 2.27 ± 0.3 |  | 
VAAELLNHLLESMPLREGSSFQDL [HES6] | 3.11 ± 0.69 | 3.35 ± 0.79 |  | 
GTAGDSMSYHSGSVFSARDRDPNS [TNXB] | 4.66 ± 0.18 | 4.87 ± 0.14 |  | 
QYEVSNFARNGALSTHNWTYWQCG [RSAD1] | 2.43 ± 0.25 | 2.05 ± 0.23 |  | 
FLPVDTSNNNGRIKQLRSGGTPIR [PTPRD] | 3.33 ± 0.3 | 3.51 ± 0.063 |  | 
NNWPPLPSFCPVQPCFFQDISMEI [SCAMP3] | 2.4 ± 0.53 | 2.55 ± 0.5 |  | 
KTTLGWKYEQAFESSQKYKEGKYI [YPEL3] | 2.37 ± 0.3 | 2.63 ± 0.17 |  | 
YNVSPLSWNVAVKFLMARKFDVLR [PTPN9] | 3.02 ± 0.62 | 2.46 ± 0.88 |  | 
VRRTDDTPVVLVGNKSDLKQLRQV [RIT1] | 3.56 ± 0.26 | 3.6 ± 0.23 |  | 
REVMESAVGNSSGSGQNEESPRKR [FBXO28] | 5.51 ± 0.14 | 5.49 ± 0.38 |  | 
RLPNRQLISCSEDGSVRIWELREK [WDR41] | 3.23 ± 0.2 | 3.31 ± 0.42 |  | 
LLGFNLTFVFLASLLVLIEPVAAG [CLCN6] | 3.45 ± 0.23 | 3.14 ± 0.36 |  | 
HPNIITLHDIFENKTDVVLILELV [DAPK3] | 2.54 ± 0.14 | 2.34 ± 0.23 |  | 
GELEDESLNRACHQQNKIKDLQKE [CEP70] | 5.3 ± 0.28 | 5.34 ± 0.24 |  | 
VHSSPVSSPSVSGPRRLVSCLSSQ [SPACA3] | 3.38 ± 0.2 | 3.54 ± 0.18 |  | 
RSLNVFVKDDDRLTFHRHPVAQST [SPSB4] | 3.51 ± 0.3 | 3.62 ± 0.29 |  | 
KHLTARVLCLIVLPLALYTATFAV [POMT2] | 3.38 ± 0.42 | 3.15 ± 0.58 |  | 

Sequence | protein stability index [1] | protein stability index [2] | protein stability index (treatment: DMSO, c terminus: native) | protein stability index (treatment: MLN4924 1 uM, 8 h, c terminus: native)
FSSITDSTMSLNIITVTLNMEKYN [DVL3] | 2.93 ± 0.63 | 2.75 ± 0.57 |  | 
SSPMVQVDEKGEKVRPSHKRCIVI [LARP4] | 2.69 ± 0.16 | 2.63 ± 0.12 |  | 
AEAEPEDQDEGEWGLDQEQVFSLG [ZBED1] | 5.34 ± 0.44 | 5.52 ± 0.44 |  | 
TCLTGVLGVGLGVEISRRLRHSNP [SPNS1] | 2.36 ± 0.22 | 2.09 ± 0.36 |  | 
QSRSFRILAHLTGTEFMQDPDEEH [PDLIM7] | 3.95 ± 0.11 | 4.17 ± 0.07 |  | 
MSGGGVIRGPAGNNDCRIYVGNLP [SRSF1] | 2.85 ± 0.29 | 2.96 ± 0.51 |  | 
MSVAIRKRSWEEHVTHWMGQPFNS [DLC1] | 2.41 ± 0.65 | 2.43 ± 0.18 |  | 
PRTRGSWSQPQPLKAPCLNGDTT [RASAL3] |  |  | 3.62 ± 0.36 | 3.5 ± 0.36
RIKIWDVYTGKLLLNLVDHTEVVR [WSB1] | 2.61 ± 0.59 | 2.57 ± 0.34 |  | 
ADSQITTIGNLVPQKTYSVKVLAF [PTPRD] | 2.46 ± 0.56 | 2.17 ± 0.28 |  | 
QGSLENMSKLLKRQNDILQVVSQG [CD207] | 3.39 ± 0.22 | 3.64 ± 0.22 |  | 
YVPSSESFIIYLKNIVIADFVMSL [P2RY14] | 2.89 ± 0.96 | 2.74 ± 0.78 |  | 
EVFEGREDSILGDPKKLLTQHFVQ [MAGEA3] | 3.42 ± 0.49 | 3.29 ± 0.4 |  | 
EDDRDGLLAEREQEEAIAQFPYVE [TMEM106C] | 5.5 ± 0.19 | 5.64 ± 0.1 |  | 
MVVSREEVELAYQEAMFNMATLNR [SEPHS2] | 2.93 ± 0.29 | 3.03 ± 0.2 |  | 
PVLKRSSESMENINSGYETRRKKG [KMT2E] | 4.87 ± 0.28 | 4.72 ± 0.29 |  | 
EKDWGLEGYVWRGSQLEDQALRGL [ZSWIM9] | 2.97 ± 0.48 | 3.62 ± 0.58 |  | 
QTEKLLQFQDLTGIESMDQCRHTL [FAF2] | 3.82 ± 0.21 | 3.66 ± 0.33 |  | 
RDIDLKNRRGGPPFAFVEFEDPRD [SRSF1] | 4.03 ± 0.35 | 4.27 ± 0.18 |  | 
PPPPPGPPPPPGLPSDGDHQVPTT [WASL] | 5.48 ± 0.26 | 5.63 ± 0.21 |  | 
ILTIICYLGLPRLEFYRYYQQLKL [SLC29A1] | 3.31 ± 0.33 | 3.08 ± 0.56 |  | 
DFVLEMNTAKSTSRVTAFLDDLSQ [NLN] | 2.75 ± 0.26 | 2.72 ± 0.33 |  | 

Source: the supplement of paper PMC10567573
